The data set addresses T1, GRHL1 DNA-binding domain (UniProt Q9NZI5 248-485).
T1 sequence: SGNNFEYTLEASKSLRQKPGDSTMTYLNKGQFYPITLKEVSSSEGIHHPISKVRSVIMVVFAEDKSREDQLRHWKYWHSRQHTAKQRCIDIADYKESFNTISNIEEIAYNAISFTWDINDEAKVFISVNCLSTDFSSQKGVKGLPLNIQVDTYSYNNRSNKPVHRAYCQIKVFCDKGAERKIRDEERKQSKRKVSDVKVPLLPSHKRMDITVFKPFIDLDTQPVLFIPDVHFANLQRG
The data set can be described thus: ITC; ITC: 20 mM HEPES-NaOH pH 7.2, 125 mM NaCl, 2 mM DTT; ~10 µM dsDNA in cell, GRHL1 165 or 200 µM (Methods: 156 or 200 µM) in syringe; triplicates; temperature not stated. To be noted: protein: recombinant; tags: His6 tag removed by TEV; chain copies: 2; blunt.

B1: Novel (dsDNA)
DNA 1: AGGTTTTTCCACTTTGGGGC
DNA 2: GCCCCAAAGTGGAAAAACCT
In the case of B1, the Kd was 180 ± 80 nM.

B2: Neg_Ctrl (dsDNA)
DNA 1: GCAAAAAGGAGTCATTGGTG
DNA 2: CACCAATGACTCCTTTTTGC
As to B2, the binding result is listed as “no binding”.

B3: Novel_V3 (dsDNA)
DNA 1: AGGTTTTTCCATTTTGGGGC
DNA 2: GCCCCAAAATGGAAAAACCT
As to B3, the binding result is given as “no binding”.

B4: Pos_Ctrl_V1 (dsDNA)
DNA 1: GGGCAAAACCGATTTTGCGG
DNA 2: CCGCAAAATCGGTTTTGCCC
B4: the Kd came to 3400 ± 2200 nM.

B5: Novel_V1 (dsDNA)
DNA 1: AGGTTTTTCCAATTTGGGGC
DNA 2: GCCCCAAATTGGAAAAACCT
Consider B5, for which the binding result is recorded as “no binding”.

B6: Pos_Ctrl (dsDNA)
DNA 1: GGGCAAAACCGGTTTTGCGG
DNA 2: CCGCAAAACCGGTTTTGCCC
Consider B6, for which the Kd came out at 110 ± 30 nM.

B7: Pos_Ctrl_V2 (dsDNA)
DNA 1: GGGCAAAACCGCTTTTGCGG
DNA 2: CCGCAAAAGCGGTTTTGCCC
Regarding B7, the Kd turned out to be 1540 ± 300 nM.

B8: Pos_Ctrl_V3 (dsDNA)
DNA 1: GGGCAAAACCGTTTTTGCGG
DNA 2: CCGCAAAAACGGTTTTGCCC
On to B8, for which the dissociation constant (Kd) amounted to 4350 ± 5400 nM.

B9: Novel_V2 (dsDNA)
DNA 1: AGGTTTTTCCAGTTTGGGGC
DNA 2: GCCCCAAACTGGAAAAACCT
For the molecule B9, the Kd turned out to be 210 ± 60 nM.

The values above are taken from publication PMC10696883, “Discovery of a non-canonical GRHL1 binding site using deep convolutional and recurrent neural networks”.
